Assay results published in patent US20180224449A1 (GOVERNMENT OF THE UNITED STATES AS REPRESENTED BY THE …, published 2018).
Ends that are not written are not given here. * marks the point of attachment. Biotin = O=C1N[C@H]2[C@H](CS[C@H]2CCCCC(=O)*)N1

T1: biotinylated OprF1 synthetic peptide (P. aeruginosa)
T1 construct: also called OprF1-B; OprF1-Biotin
T1 peptide: Biotin-GTYETGNKKVH

B1: OBP11 peptide-quantum dot conjugate (peptide)
peptide: PIKTNRK
modifications: also: conjugated to quantum dot
notes: The summary and claims describe a C-terminal three-glycine plus cysteine linker to an amine-functionalized quantum dot; also called QD545-OBP11; OBP11-QD545
B2: monoclonal M13 phage displaying OBP11 (PIKTNRK) (peptide)
chain: PIKTNRK
notes: also called OprF-specific bacteriophage; not shown: P3 coat protein of M13 bacteriophage (Ph.D.-7 library)
B3: monoclonal M13 phage displaying OBP7 (QITLRST) (peptide)
chain: QITLRST
notes: as for B2
B4: monoclonal M13 phage displaying OBP4 (RRSNSQL) (peptide)
chain: RRSNSQL
notes: as for B2
B5: monoclonal M13 phage displaying OBP12 (PKRTPRH) (peptide)
chain: PKRTPRH
notes: as for B2
B6: OBP12 peptide-quantum dot conjugate (peptide)
peptide: PKRTPRH
modifications: also: conjugated to quantum dot
notes: The summary and claims describe a C-terminal three-glycine plus cysteine linker to an amine-functionalized quantum dot; also called QD545-OBP12; OBP12-QD545
B7: monoclonal M13 phage displaying OBP6 (NMTNPPP) (peptide)
chain: NMTNPPP
notes: as for B2
B8: monoclonal M13 phage displaying OBP9 (QMLLRLP) (peptide)
chain: QMLLRLP
notes: as for B2

Columns and labels:
[1] = target: T2, OprF outer membrane protein on P. stutzeri cells (P. stutzeri); assay: fluorometry of cells recovered from spiked 1 L Jet A fuel and labeled with 1.5 uM peptide-QD545, at the LOD of 5 x 10^5 CFU
T2 construct: whole, on cells; whole bacterial cells were labeled

[2] = target: T3, OprF outer membrane protein on A. venetianus cells (A. venetianus); assay: as above
T3 construct: whole, on cells; Whole bacterial cells were labeled

[3] = target: T1, biotinylated OprF1 synthetic peptide; assay: pooled monoclonal phages pulled down on biotinylated OprF1 in Bushnell-Haas with 1% Jet-A; unamplified eluate, share of 30 sequenced clones

| Binder | FLUORESCENCE (RFU) [1] [RFU] | FLUORESCENCE (RFU) [2] [RFU] | % Abundance [3] [%] |
| --- | --- | --- | --- |
| B1 | 255 | 292 |  |
| B2 |  |  | 10 |
| B3 |  |  | 10 |
| B4 |  |  | 33 |
| B5 |  |  | 3 |
| B6 | 12200 | 580 |  |
| B7 |  |  | 10 |
| B8 |  |  | 3 |
